Three substances from PMC4763223 can be followed below.

What all share (experiment): GEMMA (gas-phase electrophoretic mobility macromolecule analysis); DNA-free protein; equilibrated into 100 mM ammonium acetate pH 7.8, diluted to 20 mM ammonium acetate and 0.005% Tween-20; low flow-rate (pressure 2 Psi); non-tagged Kat1 at 0.085 mg/ml
In assay [1] the target is Glutathione S-transferase (GST) alone.
Assay [2] addresses Glutathione S-transferase (GST)-tagged Kat1+G (Kluyveromyces lactis hAT-transposase 1) (Kluyveromyces lactis).
The target of assay [3] is non-tagged Kat1 (GST-tag cleaved from GST-Kat1 with thrombin) (Kluyveromyces lactis).

Chain of Glutathione S-transferase (GST) alone (P08515 2-218): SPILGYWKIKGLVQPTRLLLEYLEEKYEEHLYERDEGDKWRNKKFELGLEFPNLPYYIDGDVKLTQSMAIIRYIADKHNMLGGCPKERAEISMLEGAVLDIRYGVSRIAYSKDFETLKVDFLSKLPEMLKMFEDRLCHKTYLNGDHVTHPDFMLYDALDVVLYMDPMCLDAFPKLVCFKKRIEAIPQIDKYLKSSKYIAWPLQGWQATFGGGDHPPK

By stoichiometry N is commonly meant a count of units in the complex or per binding partner. Consider “Glutathione S-transferase (GST) alone (enzyme)”, for which, in assay [1], the stoichiometry N is 2. For “Glutathione S-transferase (GST)-tagged Kat1+G (Kluyveromyces lactis hAT-transposase 1) (enzyme)”, in assay [2], the stoichiometry N came out at 6.

On to “non-tagged Kat1 (GST-tag cleaved from GST-Kat1 with thrombin) (enzyme)”, for which the stoichiometry N in assay [3] is 6.
